In experiment [1] the target is hIL-10R1-Fc chimeric protein (extracellular domain of human IL-10 receptor 1 fused to Fc) (human) (UniProt Q13651).
The target is the same in experiment [2]. The source holds these as a separate data set.
For experiment [3] the target is unchanged. Description: ELISA; competitive displacement ELISA: hIL-10 (400 ng/mL) coated on Maxisorp wells; serially diluted IL-10 preincubated with 300 ng/mL hIL-10R1-Fc in PBS, 0.4% BSA, 0.02% Tween20 at 25 °C for 1 h, then transferred to the coated wells for 1 h at 25 °C; free hIL-10R1-Fc detected with anti-human IgG. (In an ELISA, binding on a coated surface is turned into a signal by an enzyme label.)

Experiment [4] concerns the target Pseudocowpox virus interleukin-10, FLAG-tagged (Pseudocowpox virus). As to the kind of experiment: non-reducing SDS-PAGE with anti-FLAG Western blot; purified FLAG-tagged IL-10 mixed with SDS-PAGE sample buffer without DTT, without boiling; bands detected with HRP-conjugated anti-FLAG M2. Background: A western blot detects proteins with antibodies after separation by electrophoresis.

Experiment [5] addresses Orf virus interleukin-10, FLAG-tagged (Orf virus). Description: non-reducing SDS-PAGE with anti-FLAG Western blot.
Experiment [6] concerns the target hIL-10R1-Fc chimeric protein (extracellular domain of human IL-10 receptor 1 fused to Fc) (human) (UniProt Q13651). Description: ELISA; […] (400 ng/mL) […].
Experiment [7] concerns the target T1, hIL-10R1-Fc chimeric protein (extracellular domain of human IL-10 receptor 1 fused to Fc) (human, UniProt Q13651 22-235).
T1 construct: human interleukin-10 receptor subunit 1 (IL-10R1), extracellular domain; No catalogue number printed; also called soluble hIL-10R1-Fc fusion protein; source: bought: R&D Systems
T1 sequence: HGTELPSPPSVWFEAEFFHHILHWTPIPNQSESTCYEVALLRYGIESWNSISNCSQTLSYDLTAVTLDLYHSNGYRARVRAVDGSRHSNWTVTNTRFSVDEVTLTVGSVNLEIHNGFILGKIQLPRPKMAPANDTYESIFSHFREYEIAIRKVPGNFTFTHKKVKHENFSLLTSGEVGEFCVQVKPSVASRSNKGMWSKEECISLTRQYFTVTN
Description: ELISA; competitive displacement ELISA: hIL-10 (400 ng/mL) coated on Maxisorp wells; serially diluted IL-10 preincubated with 300 ng/mL hIL-10R1-Fc in PBS, 0.4% BSA, 0.02% Tween20 at 25 °C for 1 h, then transferred to the coated wells for 1 h at 25 °C; free hIL-10R1-Fc detected with anti-human IgG. As to conditions: both partners purified.

Consider six molecules from article PMC9143231, “Parapoxvirus Interleukin-10 Homologues Vary in Their Receptor Binding, Anti-Inflammatory, and Stimulatory Activities” (Pathogens, 2022).

Broadly, the stoichiometry N is a count of units in the complex or per binding partner.

Turning to “Grey sealpox virus interleukin-10, FLAG-tagged (ligand)”, in experiment [1], the Emax (Δ%, relative to hIL-10) of stimulation of murine MC/9 mast cell proliferation (with IL-3 and IL-4), 48 h was 25.8 Δ%; the pEC50 (M) of stimulation of murine MC/9 mast cell proliferation (with IL-3 and IL-4), 48 h is 9.3 M (pEC50). Further, in experiment [2], the Emax (Δ%, relative to hIL-10) of inhibition of IL-1β production by LTA-stimulated human THP-1 monocytes, 48 h was 25.8 Δ%; the Emax (Δ%, relative to hIL-10) of inhibition of IL-8 production by LTA-stimulated human THP-1 monocytes, 24 h (pIC50 ND) is 50.1 Δ%; the Emax (Δ%, relative to hIL-10) of inhibition of MCP-1 production by LTA-stimulated human THP-1 monocytes, 24 h (pIC50 ND) is 31 Δ%; the pIC50 (M) of inhibition of IL-1β production by LTA-stimulated human THP-1 monocytes, 48 h was 11 M (pIC50).

In the case of “Bovine papular stomatitis virus interleukin-10, FLAG-tagged (ligand)”, in experiment [3], the Emax (Δ%) of hIL-10R1-Fc displacement, relative to hIL-10 is 98.7 Δ% and the pIC50 (negative log10 of the IC50) turned out to be 8.72 M.

Consider “Pseudocowpox virus interleukin-10, FLAG-tagged (ligand)”, for which the stoichiometry N in experiment [4] stood at 2. In experiment [3], the Emax (Δ%) of hIL-10R1-Fc displacement, relative to hIL-10 was 94.6 Δ% and the pIC50 (negative log10 of the IC50) came out at 7.66 M.

Take “Red deerpox virus interleukin-10, FLAG-tagged (ligand)”: in experiment [3], the Emax (Δ%) of hIL-10R1-Fc displacement, relative to hIL-10 was 108 Δ% and the pIC50 (negative log10 of the IC50) amounted to 9.51 M.

Consider “Orf virus interleukin-10, FLAG-tagged (ligand)”, for which the stoichiometry N in experiment [5] was 2. In experiment [6], the Emax (Δ%) of hIL-10R1-Fc displacement, relative to hIL-10 was 105 Δ% and the pIC50 (negative log10 of the IC50) was determined as 9.24 M.

B1: human interleukin-10, FLAG-tagged (ligand, UniProt P22301 19-178, looked up)
chain: SPGQGTQSENSCTHFPGNLPNMLRDLRDAFSRVKTFFQMKDQLDNLLLKESLLEDFKGYLGCQALSEMIQFYLEEVMPQAENQDPDIKAHVNSLGENLKTLRLRLRRCHRFLPCENKSKAVEQVKNAFNKLQEKGIYKAMSEFDIFINYIEAYMTMKIRN
notes: also called hIL-10; human IL-10; not shown: FLAG, C-terminal, kept
For the molecule B1, in experiment [7], the “Emax (Δ%) of hIL-10R1-Fc displacement, relative to hIL-10” value is 100 Δ% and the “pIC50 (negative log10 of the IC50)” value was found to be 8.79.
